B1: Hairpin Ribozyme (parent)
chain: GUCCUCUUUCACGUGCGCGUGAAAGAGAGAAGUGAACCAGAGAAACACACGUUGUGGUAUAUUACCUGGUA

Variants of: B1
Assay: self-cleavage, relative activity (ratio to wild type); higher = more cleavage; co-transcriptional

| Variant | self-cleavage |
| --- | --- |
| AUCCUCUUUCACGUGCGCGUGAAAGAGAGAAGUGAACCAGAGAACCACACGUUGUGGUAUAUUACCUGGUA [G1A A45C] | 0.0307 |
| AUCCUCUUUCACGUGCGCGUGAAAGAGAGAAGUGAACCAGAGAAGCACACGUUGUGGUAUAUUACCUGGUA [G1A A45G] | 0.0977 |
| AUCCUCUUUCACGUGCGCGUGAAAGAGAGAAGUGAACCAGAGUAACACACGUUGUGGUAUAUUACCUGGUA [G1A A43U] | 0.0738 |
| AUCCUCUUUCACGUGCGCGUGAAAGAGAGAAGUGAACCAGAGGAACACACGUUGUGGUAUAUUACCUGGUA [G1A A43G] | 0.2 |
| AUCCUCUUUCACGUGCGCGUGCAAGAGAGAAGUGAACCAGAGAAACACACGUUGUGGUAUAUUACCUGGUA [G1A A22C] | 0.11 |
| AUCCUCUUUCACGUGCGCGUGUAAGAGAGAAGUGAACCAGAGAAACACACGUUGUGGUAUAUUACCUGGUA [G1A A22U] | 0.109 |
| AUCCUCUUUCACGUGUGCGUGAAAGAGAGAAGUGAACCAGAGAAACACACGUUGUGGUAUAUUACCUGGUA [G1A C16U] | 0.217 |
| AUCCUCUUUCACGUGCGCGUGAAAGAGAGAAGUGAACCAGAGAGACACACGUUGUGGUAUAUUACCUGGUA [G1A A44G] | 0.167 |
| AUCCUCUUUCACGUGCGCGUGAAAGAGAGAAGUGAACCAGAGACACACACGUUGUGGUAUAUUACCUGGUA [G1A A44C] | 0.2 |
| AUCCUCUUUCACGUGCGCGUGAAAGAGAGAAGUGAAGCAGAGAAACACACGUUGUGGUAUAUUACCUGGUA [G1A C37G] | 0.187 |
| AUCCUCUGUCACGUGCGCGUGAAAGAGAGAAGUGAACCAGAGAAACACACGUUGUGGUAUAUUACCUGGUA [G1A U8G] | 0.158 |
| AUCCUCUUUCACCUGCGCGUGAAAGAGAGAAGUGAACCAGAGAAACACACGUUGUGGUAUAUUACCUGGUA [G1A G13C] | 0.119 |
| AUCCUCUUUCACUUGCGCGUGAAAGAGAGAAGUGAACCAGAGAAACACACGUUGUGGUAUAUUACCUGGUA [G1A G13U] | 0.208 |
| AUCCUCUUUCACGUGCGCGGGAAAGAGAGAAGUGAACCAGAGAAACACACGUUGUGGUAUAUUACCUGGUA [G1A U20G] | 0.188 |
| AUCCUCUUUCACGUGCGCGCGAAAGAGAGAAGUGAACCAGAGAAACACACGUUGUGGUAUAUUACCUGGUA [G1A U20C] | 0.188 |
| AUCCUCUUUCACGUGCGCGUGAAAGAGAGAAGUGAACCAGACAAACACACGUUGUGGUAUAUUACCUGGUA [G1A G42C] | 0.213 |
| AUCCUCUUUCACGUGCGCGUGAAAGAGAGAAGUGAACCAUAGAAACACACGUUGUGGUAUAUUACCUGGUA [G1A G40U] | 0.123 |
| AUCCUCUUUCACGUGCGCGUGAAAGAGAGAAGUGAACCACAGAAACACACGUUGUGGUAUAUUACCUGGUA [G1A G40C] | 0.167 |
| AUCCUCUUUCACGUGCGCGUGAAAGAGAGAAGUGAACCAAAGAAACACACGUUGUGGUAUAUUACCUGGUA [G1A G40A] | 0.199 |
| AUCCUCUUUCACGUGCGCGUGAAAGAGAGAAGUGAACCAGAGAAACACACGUUAUGGUAUAUUACCUGGUA [G1A G54A] | 0.191 |
| AUCCUCUUUCACGUGCGCGUGAAAGAGAGAAGUGAACCAGAGAAACACACGUUUUGGUAUAUUACCUGGUA [G1A G54U] | 0.153 |
| AUCCUCUUUCACGUGCGCGUGAAAGAGAGAAGUGAACCAGAGAAACACACGAUGUGGUAUAUUACCUGGUA [G1A U52A] | 0.155 |
| AUCCACUUUCACGUGCGCGUGAAAGAGAGAAGUGAACCAGAGAAACACACGUUGUGGUAUAUUACCUGGUA [G1A U5A] | 0.152 |
| AUCCUCUUUCACGUGCGCGUGAAAGAGAGAAGUGAACCAGAGAAACCCACGUUGUGGUAUAUUACCUGGUA [G1A A47C] | 0.124 |
| AUCCUCUUUCACGUGCGCGUGAAAGAGAGAAGUGAACCAGAGAAACGCACGUUGUGGUAUAUUACCUGGUA [G1A A47G] | 0.123 |
| AUCCUCUUUCACGUGCGCGUGAAAGAGAGGAGUGAACCAGAGAAACACACGUUGUGGUAUAUUACCUGGUA [G1A A30G] | 0.231 |

| Variant | self-cleavage |
| --- | --- |
| AUCCUCUUUCACGUGCGCGUGAAAGAGAGCAGUGAACCAGAGAAACACACGUUGUGGUAUAUUACCUGGUA [G1A A30C] | 0.291 |
| AUCCUCUUUCACGUGCGCGUGAAAGAGAGAAGUGAACCAGAGAAAAACACGUUGUGGUAUAUUACCUGGUA [G1A C46A] | 0.134 |
| AUCCUCUUUCACGUGCGCGUGAAAGAGAGAAGUGAACCAGAGAAACACACGUUGUGGUAUAUUACCUGGUG [G1A A71G] | 0.205 |
| AUCCUCUUUCACGUGCGCGUGAAAGAGAGAAGUGAACCAGAGAAACACACGUUGUGGUAUAUUUCCUGGUA [G1A A64U] | 0.272 |
| AUCCUCUUUCACGUGCGCGUGAAAGAGAGAAGUGAACCAGAGAAACACACGUUGUGGUAUAUUGCCUGGUA [G1A A64G] | 0.187 |
| AUCCUCUUUCACGUGCGCGUGAAAGAGAGAAGUGAACCAGAGAAACACACCUUGUGGUAUAUUACCUGGUA [G1A G51C] | 0.0527 |
| AUCCUCUUUCACGUGCGCGUGAAAGAGAGAAGUGAACCAGAGAAACACACGUUGUGGUGUAUUACCUGGUA [G1A A59G] | 0.237 |
| AUCCUCUUUCACGUGCGCGUGAAAGAGAGAAGUGAACCAGAGAAACACACGUUGUGGUCUAUUACCUGGUA [G1A A59C] | 0.22 |
| AGCCUCUUUCACGUGCGCGUGAAAGAGAGAAGUGAACCAGAGAAACACACGUUGUGGUAUAUUACCUGGUA [G1A U2G] | 0.895 |
| ACCCUCUUUCACGUGCGCGUGAAAGAGAGAAGUGAACCAGAGAAACACACGUUGUGGUAUAUUACCUGGUA [G1A U2C] | 0.899 |
| AUCCUCUUUCACGUGCGCGUGAAAGAGAGAAGUGAACCAGAGAAACACACGUUGUGGUAUAUUAUCUGGUA [G1A C65U] | 0.0307 |
| AUCCUCUUUCACGUGCGCGUGAAAGAGAGAAGUGAACCAGAGAAACACACGUUGUGGUAUAUUAGCUGGUA [G1A C65G] | 0.0867 |
| AUCCUCUUUCACGUGCGCGUGAAAGAGAGAAGUGAACCAGAGAAACACACGUUGUGGUAUAUUAACUGGUA [G1A C65A] | 0.285 |
| AUCCUCUUUCACGUGCGCGUGAAAGAGAGAAGAGAACCAGAGAAACACACGUUGUGGUAUAUUACCUGGUA [G1A U33A] | 0.175 |
| AUCCUCUUUCACGUGCGCGUGAAAGAGAGAAGCGAACCAGAGAAACACACGUUGUGGUAUAUUACCUGGUA [G1A U33C] | 0.0709 |
| AUCCUCUUUCACGUGCACGUGAAAGAGAGAAGUGAACCAGAGAAACACACGUUGUGGUAUAUUACCUGGUA [G1A G17A] | 0.0844 |
| AUCCUCUUUCACGUGCUCGUGAAAGAGAGAAGUGAACCAGAGAAACACACGUUGUGGUAUAUUACCUGGUA [G1A G17U] | 0.127 |
| AUCCUCUUUCACGUGCGCGUAAAAGAGAGAAGUGAACCAGAGAAACACACGUUGUGGUAUAUUACCUGGUA [G1A G21A] | 0.154 |
| AUCCUCUUUCACGUGCGCGUUAAAGAGAGAAGUGAACCAGAGAAACACACGUUGUGGUAUAUUACCUGGUA [G1A G21U] | 0.127 |
| AUCCUCUUUCACGUGCGCGUGAAAGAGAGAAGUGAACUAGAGAAACACACGUUGUGGUAUAUUACCUGGUA [G1A C38U] | 0.115 |
| AUCCUGUUUCACGUGCGCGUGAAAGAGAGAAGUGAACCAGAGAAACACACGUUGUGGUAUAUUACCUGGUA [G1A C6G] | 0.193 |
| AUCCUUUUUCACGUGCGCGUGAAAGAGAGAAGUGAACCAGAGAAACACACGUUGUGGUAUAUUACCUGGUA [G1A C6U] | 0.195 |
| AUCCUCUUUCACGUGCGCGUGAAAGAGAGAACUGAACCAGAGAAACACACGUUGUGGUAUAUUACCUGGUA [G1A G32C] | 0.318 |
| AUCCUCUUUCACGUGCGCGUGAAAGAGAGAAGUGAACCAGAGAAACACACGUUGAGGUAUAUUACCUGGUA [G1A U55A] | 0.229 |
| AUCCUCUUUCACGUGCGCGUGAAAGAGAGAGGUGAACCAGAGAAACACACGUUGUGGUAUAUUACCUGGUA [G1A A31G] | 0.136 |
| AUCCUCUUUCACGUGCGCGUGAAAGAGAGAAGUGAGCCAGAGAAACACACGUUGUGGUAUAUUACCUGGUA [G1A A36G] | 0.088 |

| Variant | self-cleavage |
| --- | --- |
| AUCCUCUUUCACGUGCGCGUGAAAGGGAGAAGUGAACCAGAGAAACACACGUUGUGGUAUAUUACCUGGUA [G1A A26G] | 0.149 |
| AUCCUCUUUCACGUGCGCGUGAAAGUGAGAAGUGAACCAGAGAAACACACGUUGUGGUAUAUUACCUGGUA [G1A A26U] | 0.11 |
| AUCCUCUUGCACGUGCGCGUGAAAGAGAGAAGUGAACCAGAGAAACACACGUUGUGGUAUAUUACCUGGUA [G1A U9G] | 0.293 |
| AUCCUCUUACACGUGCGCGUGAAAGAGAGAAGUGAACCAGAGAAACACACGUUGUGGUAUAUUACCUGGUA [G1A U9A] | 0.198 |
| AUCCUCUUCCACGUGCGCGUGAAAGAGAGAAGUGAACCAGAGAAACACACGUUGUGGUAUAUUACCUGGUA [G1A U9C] | 0.167 |
| AUCUUCUUUCACGUGCGCGUGAAAGAGAGAAGUGAACCAGAGAAACACACGUUGUGGUAUAUUACCUGGUA [G1A C4U] | 0.241 |
| AUCCUCUUUCACGUGCGCGUGAAAGAGAGAAGUGAACCAGAGAAACACACGUUGUAGUAUAUUACCUGGUA [G1A G56A] | 0.181 |
| AUCCUCUUUCUCGUGCGCGUGAAAGAGAGAAGUGAACCAGAGAAACACACGUUGUGGUAUAUUACCUGGUA [G1A A11U] | 0.302 |
| AUCCUCUUUCACGUGCGAGUGAAAGAGAGAAGUGAACCAGAGAAACACACGUUGUGGUAUAUUACCUGGUA [G1A C18A] | 0.185 |
| AUCCUCUUUCACGUGCGGGUGAAAGAGAGAAGUGAACCAGAGAAACACACGUUGUGGUAUAUUACCUGGUA [G1A C18G] | 0.0949 |
| AUCCUCUUUCACGUGCGCGUGAAAGAGAGAAGUGAACCAGAGAAACACACGUUGUGCUAUAUUACCUGGUA [G1A G57C] | 0.163 |
| AUCCUCGUUCACGUGCGCGUGAAAGAGAGAAGUGAACCAGAGAAACACACGUUGUGGUAUAUUACCUGGUA [G1A U7G] | 0.148 |
| AUCCUCUUUCACGUGCGCGUGAAAGAGAGAAGUGAACCAGAGAAACACACGUUGUGGUAUAUUACCUUGUA [G1A G68U] | 0.176 |
| AUCCUCUUUCACGUGCGCGUGAAAGAGAGAAGUGAACCAGAGAAACACACGUUGUGGUAUAUUACCUAGUA [G1A G68A] | 0.21 |
| AUCCUCUUUCACGUGCGCGUGAAAGAGAGAAGUGAACCGGAGAAACACACGUUGUGGUAUAUUACCUGGUA [G1A A39G] | 0.152 |
| AUCCUCUUUCACGUGCGCGUGAAAGAGAGAAGUGAACCCGAGAAACACACGUUGUGGUAUAUUACCUGGUA [G1A A39C] | 0.138 |
| AUCCUCUUUCACGUGCGCGUGAAAGAGAGAAGUAAACCAGAGAAACACACGUUGUGGUAUAUUACCUGGUA [G1A G34A] | 0.18 |
| AUCCUCUUUUACGUGCGCGUGAAAGAGAGAAGUGAACCAGAGAAACACACGUUGUGGUAUAUUACCUGGUA [G1A C10U] | 0.235 |
| AUCCUCUUUCACGUGCGCGUGAAAGAGAGAAGUGAACCAGAGAAACAAACGUUGUGGUAUAUUACCUGGUA [G1A C48A] | 0.156 |
| AUCCUCUUUCACGUGCGCGUGAAAGAGAGAAGUGAACCAGAGAAACAUACGUUGUGGUAUAUUACCUGGUA [G1A C48U] | 0.0691 |
| AUCCUCUUUCACGUGCGCGUGAAAGAGAGAAGUGAACCAGAGAAACACUCGUUGUGGUAUAUUACCUGGUA [G1A A49U] | 0.061 |
| AUCCUCUUUCACGUGCGCGUGAAAGAGAGAAGUGAACCAGAGAAACACCCGUUGUGGUAUAUUACCUGGUA [G1A A49C] | 0.0908 |
| AUCCUCUUUCACGUGCGCGUGAAAGAGAGAAGUGAACCAGUGAAACACACGUUGUGGUAUAUUACCUGGUA [G1A A41U] | 0.225 |
| AUCCUCUUUCACGAGCGCGUGAAAGAGAGAAGUGAACCAGAGAAACACACGUUGUGGUAUAUUACCUGGUA [G1A U14A] | 0.127 |

Source: the RNAGym collection of RNA variant scans (doi:10.7554/elife.80360)
